Source: patent publication US20250388652A1 (BEIJING WISDOMAB BIOTECHNOLOGY, published 2025)
Positions count from the first letter of the chain named.

B1: anti-RSV monoclonal antibody Palivizumab (Hu1129) (antibody, V domains shown)
VH: QVTLRESGPALVKPTQTLTLTCTFSGFSLSTSGMSVGWIRQPPGKALEWLADIWWDDKKDYNPSLKSRLTISKDTSKNQVVLKVTNMDPADTATYYCARSMITNWYFDVWGAGTTVTVSS
VL: DIQMTQSPSTLSASVGDRVTITCKCQLSVGYMHWYQQKPGKAPKLWIYDTSKLASGVPSRFSGSGSGTEFTLTISSLQPDDFATYYCFQGSGYPFTFGGGTKLEIK
B2: recombinant monoclonal antibody R3B1h1 against F protein of RSV (human IgG1-K version) (antibody, V domains shown)
VH: QVQLVQSGAEVKKPGSSVKVSCKASGGLLEDYIINWVRQAPGQGLEWMGGIIPVLGTVHYGPKFQGRVTITADESTSTAYMELSSLRSEDTAVYYCATETAIVVTESYRPHFFDNWGQGTLVTVSS
VL: DIQMTQSPSSLSASVGDRVTITCQASQDIVNYLNWYQQKPGKAPKLLIYVASNLETGVPSRFSGSGSGTDFTFTISSLQPEDIATYYCQEFAGLALNFGGGTKVEIKR
B3: recombinant monoclonal antibody R22B1 against F protein of RSV (human IgG1-K version) (antibody, V domains shown)
VH: QVQLVQSGAEVKKPGSSVMVSCQASGDPLQNYIINWVRQAPGQGPEWMGAIIPALGSAHYGPKFQGRVTITADESTDTAYMELSSLRSEDTAMYYCATETAVIISESYLPHFFDNWGQGTLVTVSS
VL: B2 VL with S14A, T72S, F73L, I83V, F91Y, A92D, G93S, N97A
B4: anti-RSV monoclonal antibody Nirsevimab (MEDI8897) (antibody, V domains shown)
VH: B2 VH with K19M, K23Q, L45P, S77D, V93M, I102L, T105S, S107T, R109L, F112Y
VL: DIQMTQSPSSLSAAVGDRVTITCQASQDIVNYLNWYQQKPGKAPKLLIYVASNLETGVPSRFSGSGSGTDFSLTISSLQPEDVATYYCQQYDNLPLTFGGGTKVEIK
B5: anti-RSV monoclonal antibody Clesrovimab (RB1) (antibody, V domains shown)
VH: EVQLVESGGGLVRPGRSLRLSCTVSGFSFDDSAMSWVRQAPGKGLEWISFIKSKTYGGTKEYAASVKGRFTISRDDSKNIAYLQMNSLKTEDTAVYYCTRGAPYGGNSDYYYGLDVWGQGTTVTVSS
VL: DIQMTQSPSSLSASVGDRVTITCRTSQDVRGALAWYQQKPGKAPKLLIFDASSLETGVPSRFSGSGSGTVFTLTISSLQPEDFAAYYCQQFLDFPFTFGQGTRLEIK

Experiments:
[1] = biological target: T1, F protein mutant RSV-DS-Cav1-A with a DS-Cav1 structure before fusion (respiratory syncytial virus subtype A, …, UniProt P03420 26-513)
[2] = biological target: T2, F protein of strain 18537 of RSV subtype B (respiratory syncytial virus subtype B, …, UniProt P13843 26-574); test: cell-based or functional assay
[3] = biological target: T1, F protein mutant RSV-DS-Cav1-A with a …; remark: listed apart in the source
[4] = biological target: T3, F protein of strain A2 of RSV subtype A (respiratory syncytial virus subtype A, …, UniProt P03420 26-574); test: cell-based or functional assay
[5] = biological target: T2, F protein of strain 18537 of RSV …; test: cell-based or functional assay; remark: listed apart in the source
[6] = biological target: T3, F protein of strain A2 of RSV subtype A; test: cell-based or functional assay; remark: listed apart in the source

| Binder | Kd [1] | koff [1] | kon [1] | IC50(nM), inhibition of strain RSV/18537 infection of Hep-2 cells (RFFIT) [2] | EC50 (read off the curve) [3] | neutralisation activity against RSV/A2 relative to Clesrovimab, by IC50 [4] | neutralisation activity against RSV/A2 relative to Nirsevimab, by IC50 [4] | neutralisation activity against RSV/A2 relative to Palivizumab, by IC50 [4] | neutralisation activity against RSV/18537 relative to Clesrovimab, by IC50 [5] | neutralisation activity against RSV/18537 relative to Nirsevimab, by IC50 [5] | neutralisation activity against RSV/18537 relative to Palivizumab, by IC50 [5] | IC50(nM), inhibition of RSV/A2 strain infection of Hep-2 cells (RFFIT) [6] |
| --- | --- | --- | --- | --- | --- | --- | --- | --- | --- | --- | --- | --- |
| B1 | 2.6 nM | 8.2e-05 s⁻¹ | 31600 M⁻¹ s⁻¹ | 4.15 nM | – | – | – | – | – | – | – | – |
| B2 | 0.621 nM | 2.37e-05 s⁻¹ | 31800 M⁻¹ s⁻¹ | – | ~0.1 nM | ~12 fold | ~5 fold | ~410 fold | ~12 fold | ~18 fold | ~545 fold | 0.00516 nM |
| B3 | 0.354 nM | 1.41e-05 s⁻¹ | 39900 M⁻¹ s⁻¹ | 0.111 nM | – | – | – | – | – | – | – | – |
| B4 | 0.477 nM | 1.5e-05 s⁻¹ | 31500 M⁻¹ s⁻¹ | 0.139 nM | – | – | – | – | – | – | – | – |
| B5 | 17.6 nM | 0.000351 s⁻¹ | 20000 M⁻¹ s⁻¹ | 0.088 nM | – | – | – | – | – | – | – | – |
